Tested on: K4 kissing-loop RNA reporter
Experiment: apparent KD of K4 kissing-loop reporter; higher = weaker reporter binding
Conditions: Eterna round: R107
Procedure: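 RNA-MaP round R107: designed RNA switches with theophylline, tryptophan, arginine or FMN aptamers are transcribed on-chip within common flanks. They are titrated with a labelled K4 kissing-loop RNA reporter in RNA-MaP buffer (100 mM Tris pH 7.5, 80 mM KCl, 4 mM MgCl2), without ligand or with the indicated ligand. Median apparent KD per design.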

[1] = input ligand: theophylline 20 uM
[2] = input ligand: tryptophan 2.4 mM
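Further: bound reporter read as fluorescence of individual clusters on recovered sequencing chips by microscopy, with normalized cluster intensities fitted with a binding model.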

Sequence | apparent KD of K4 kissing-loop reporter (input ligand: FMN 200 uM) | apparent KD of K4 kissing-loop reporter (input ligand: arginine 13.2 mM) | apparent KD of K4 kissing-loop reporter (input ligand: none) | apparent KD of K4 kissing-loop reporter [1] | apparent KD of K4 kissing-loop reporter [2]
UGACAUUGCUCAGAUACCAGACUUGAGGAUCACCCAAGUGCCAAAUAAACGUACAUAAAAGUCCCUUGGCAGCUGAGCAAUGUCU [TheoBX 11] | 72.9 nM | 46.3 nM | 41.3 nM | 99 nM | 33.4 nM
UGACGUUUGGGAAGGAGCGGAAUGUAAUACGGAACGCGUGGAGAUGCAGUGAUGUUGCAGAUCCAGGUAGGUCGCCCAAGGGACG [Zainat] | 91.4 nM | 72 nM | 76.2 nM | 84.9 nM | 94.2 nM
UGACUGGACUGAAGGAGCGCGAAAACUCCUAGUGAUGUUAGGAAAACGAGACAAAGUCUCGCGCAGGUAGGUCGCAGUCUAGUCU [ArgBS 20 #SwitchBubble #StaticStem] | 131 nM | 102 nM | 121 nM | 129 nM | 113 nM
UGACUGGACUGAAGGAGCGCUUAACUCCUAGUGAUGUUAGGAUAACGAGACAAAGUCUCGAAGCAGGUAGGUCGCAGUCUAGUCU | 157 nM | 104 nM | 118 nM | 126 nM | 128 nM
UGACUGGAUGGAAGGAGCGCUAAACUCCUAGUGAUGUUAGGGAAACGAGACAAAGUCUCGAAGCAGGUAGGUCGCCAUCUAGUCU [FiskerMod 14 - Jieux - Same State - Arginine B] | 176 nM | 134 nM | 158 nM | 146 nM | 155 nM
UGACUGGAUGGAAGGAGCGCUAAACUCCUAGUGAUGUUAGGGAAAUGAGACAAAGUCUCAAGGCAGGUAGGUCGCCAUCUAGUCU [FiskerMod 16 - Jieux - Same State - Arginine B] | 142 nM | 78.6 nM | 174 nM | 506 nM | 177 nM
UGACUGGAUGGAAGGAGCGCUAAACUCCUAGUGAUGUUAGGGAUACGAGGCAAAGCCUCGAGGCAGGUAGGUCGCCAUCUAGUCU [FiskerMod 24 - Jieux - Same State - Arginine B] | 167 nM | 129 nM | 124 nM | 147 nM | 136 nM
UGAUAAAGCAGUGAUGUUGCAAGUAAUGAUACCAGUUAAGAAGAGAACCCUUGGCAGCAUAAAGUGCGCUCUAAUGAGUGUGCUU [whbob_SS_Theo_A_w51] | 82.9 nM | 138 nM | 103 nM | 169 nM | 91.3 nM
UGAUACCAGACGGCCGCCACUAGGACCGGGAGUGAUGUUCCAAAAUUAAAAUACUCGGCCGCCACUAGGACCGGGUCUGGUAUCU [TrypBX 25 #DoubleAptamer #SwitchBubble] | 225 nM | 137 nM | 162 nM | 205 nM | 75.4 nM
UGAUACCAGACUGAUACCAGCCAGUGAUGUUGGCUAAGCCGAAGAGGUGUCAAAGACACCGGCCCUUGGCAGCAGUCUGGUAUCU [#06 K4 Theophylline B Exclusion] | 132 nM | 117 nM | 114 nM | 117 nM | 117 nM
UGAUAGGACAGAAGGAGCGGAAGUGAUGUUUCCAAUGGAUAAAAGGUGUCAAAGACACCCUUCCAGGUAGGUCGCUGUCCUAUCU [ArgBX 17 #Palindromic #SwitchBubble #StaticStem] | 146 nM | 160 nM | 148 nM | 141 nM | 132 nM
UGAUAGGACAGAAGGAGCGGGAGUGAUGUUCCCAAUAAAAGGUCUAGCAAAGCUAGACCCUCCCAGGUAGGUCGCUGUCCUAUCU [ArgBX 2 #Palindromic #SwitchBubble #StaticStem] | 234 nM | 265 nM | 268 nM | 245 nM | 219 nM
UGAUAGGACAGAAGGAGCGGUAGUGAUGUUACCAAAAGGCUAAGGUGUCAAAAGACACCCUACCAGGUAGGUCGCUGUCCUAUCU | 131 nM | 131 nM | 137 nM | 121 nM | 103 nM
UGAUCACAGUGAUGUUGUGGCAAAAGUGAUACCAGCCGUGUACGAGGCCCUUGGCAGCACCAGGGCUGUACGUCGUUAGAUCCGG [theeternabot_exclusion_KL_Theo_A_33] | 211 nM | 156 nM | 194 nM | 177 nM | 169 nM
UGAUUUAACUGAAGGAGCGGCAAGAGAGAAGGAAAUAUAGUGAUGUUAUAUAAGAGAGAGAGCCAGGUAGGUCGCAGAGGGAGGA [ExArgB.E] | 126 nM | 126 nM | 173 nM | 178 nM | 137 nM
UGCACGGGCUCGGCCGCCACUCCCGCGGGUCGAAAGGUCCGCUACUGAGUGAUGUUCGGUUGGAGGAGGACCGGGAGCCCGUGCA [#2 Exclusion - Tryptophan B Attempt #24 (HarryS)] | 95.6 nM | 92.9 nM | 108 nM | 69.7 nM | 69.2 nM
UGCAGUGAUGUUGCUAUUUUUCUUGAUUAACGAGGACCGGUACGGCCGCCACUCGAUUUCUCUCUAGUCCAGUAUGUUGUUUGAU [whbob_EX_Tryp_A_t5] | 96.2 nM | 124 nM | 99.8 nM | 125 nM | 82.9 nM
UGCGCUGUGUACUGUAAUGUUAUGCGGGAUACCAGAGUCUUUUUAUUCCCUUGGCAGCUUGAGUGAUGUUUGAUGCCGUUCUUGU [plpkmullin] | 481 nM | 327 nM | 504 nM | 452 nM | 401 nM
UGCUGUCAAUAAGAUACCAGUUGGACUGAGUGAUGUUCAUCCAUUAUAUCUAUUCUGCUUAACCCUUGGCAGCUUGAUGACGUUU [theeternabot_exclusion_KL_Theo_B_6] | 174 nM | 149 nM | 180 nM | 191 nM | 182 nM
UGCUUUAUCAGAAGGAGCGCGUUAUUCAUAAUAAUAAUCAGUGAUGUUGAUAUAUGAUGAUUGCAGGUAGGUCGCUGAUAUAGCU [KL-XARG-B3] | 310 nM | 225 nM | 274 nM | 253 nM | 259 nM
UGGACCUGACUCGAUAAGAGUCAAUGAGAUACCAGCCACGAAAGUGGCCCUUGGCAGCUCUGCCAGUGAUGUUGGUCAAGGUCCU [#SwitchBubble 5 #StaticStem] | 1280 nM | 889 nM | 1550 nM | 584 nM | 1100 nM

Sequence | apparent KD of K4 kissing-loop reporter (input ligand: FMN 200 uM) | apparent KD of K4 kissing-loop reporter (input ligand: arginine 13.2 mM) | apparent KD of K4 kissing-loop reporter (input ligand: none) | apparent KD of K4 kissing-loop reporter [1] | apparent KD of K4 kissing-loop reporter [2]
UGGAGUUGACGAAAAGUCAACUCCCGAGAAGGAGCGGACGAAAGUCCAGGUAGGUCGCUCGCUACCAGUGAUGUUGGUACUCAAA | 127 nM | 182 nM | 156 nM | 192 nM | 135 nM
UGGAGUUGACGAAAAGUCAACUCCUGAGAAGGAGCGGACGAAAGUCCAGGUAGGUCGCUCACUACCAGUGAUGUUGGUACUAAAA | 160 nM | 157 nM | 141 nM | 66.6 nM | 203 nM
UGGAGUUGACGAAAAGUCAACUCCUGAGAUACCAGUGACGAAAGUCACCCUUGGCAGCUCACUGCCAGUGAUGUUGGUUUAUAAA [#OpenEnded 2] | 167 nM | 135 nM | 134 nM | 266 nM | 130 nM
UGGAGUUGACGAAAAGUCAACUCCUGAGAUACCAGUGACGAAAGUCACCCUUGGCAGCUCACUGGCAGUGAUGUUGCGCGAUAAA [#23 K4 Theophylline A Same State] | 376 nM | 288 nM | 364 nM | 367 nM | 402 nM
UGGAGUUGACGAAAAGUCAACUCCUGGGAAGGAGCGGACGAAAGUCCAGGUAGGUCGCCCACUACCAGUGAUGUUGGUACUCAAA | 178 nM | 196 nM | 170 nM | 266 nM | 169 nM
UGGAUAUAGUGAUGUUAUAUAGAGAUAGAUACCAGUUAAGAGAAUAGCCCUUGGCAGCUGAAAGAAGUAUCAUUAGAGAAGAAUG [ExTheophyl.Ab] | 212 nM | 147 nM | 207 nM | 170 nM | 137 nM
UGGAUAUAGUGAUGUUAUAUAGAGAUGGAUACCAGCAAAGAGAAUUGCCCUUGGCAGCCGAAAGAAGUAUCAUUAGAGAAGAAUG [ExTheophyl.Af] | 285 nM | 221 nM | 278 nM | 277 nM | 206 nM
UGGAUAUAGUGAUGUUAUAUAGAGAUGGAUACCAGCGAAGAGAAUUGCCCUUGGCAGCCGAAAGCAGUAUCAUUAGAGAAGAAUG [#19 K4 Theophylline A Exclusion] | 291 nM | 252 nM | 271 nM | 251 nM | 255 nM
UGGAUAUAGUGAUGUUAUAUAGAGAUGGAUACCAGCUGAGAGAAUAGCCCUUGGCAGCCGAAAGAAGUAUCAUUAGAGAAGAAUG [ExTheophyl.Aj] | 248 nM | 188 nM | 231 nM | 271 nM | 172 nM
UGGCGAGUGAUGUUCGUUGUUGUAGUGUGCCGAGGACCGGUACGGCCGCCACUCGGGUUGGUUGUUGUUGUUGUUGUUGUUGUUG [whbob_SS_tryp_A] | 127 nM | 110 nM | 112 nM | 119 nM | 76.1 nM
UGGGUGUAGUGAUGUUAUAUAGAGAAUGAUACCAGCUUAGAGAGGAGCCCUUGGCAGCGUAGACGAGUAUCAUUGGAGGAGGAGG [#22 K4 Theophylline A Exclusion] | 714 nM | 924 nM | 965 nM | 724 nM | 647 nM
UGUAAGCGCGUAGAUACCAGCAGACGAGUGAUGUUCAAAAGAUUAAGGAAAAGAAAGUAAUGCCCUUGGCAGCUAAUCAUAAGCG [whbob_Ex_Theo_B_sa92] | 243 nM | 460 nM | 466 nM | 517 nM | 295 nM
UGUACCGAGUCAGGAUAUCAUAAUAAUCGAGUGAUGUUCGAAUAACGACUGACAAAGUCGGUCGAUUGAGAAGGGACUUGGUACU [FmnBS 7 #SwitchBubble #StaticStem] | 150 nM | 342 nM | 444 nM | 362 nM | 378 nM
UGUACCGAGUCAGGAUAUGGCGUCGAAAGACGAAUCGUAGUGAUGUUACGGAUCUGCGAAAGCAGUCCAGAAGGGACUUGGUACU [FmnBS 26 G37+C49] | 125 nM | 172 nM | 163 nM | 155 nM | 182 nM
UGUACCGAGUCAGGAUAUGGCGUCGAAAGACGAAUGCUAGUGAUGUUAGGGAUCUGCGAAAGCAGUCUAGAAGGGACUUGGUACU [FmnBS 26 G36+U68] | 359 nM | 361 nM | 471 nM | 483 nM | 525 nM
UGUAUGGACUGAAGGAGCGGUAGAUAAACUGAGUGAUGUUCGGCAAAUAAAGGCGCAAGCCACCAGGUAGGUCGCAGUCCAUACU [KL-SSArg B1] | 289 nM | 182 nM | 235 nM | 236 nM | 205 nM
UGUAUGGACUGAAGGAGCGGUAUAUAAACUGAGUGAUGUUCGGCAGAUAAAGGCGCAAGCCACCAGGUAGGUCGCAGUCCAUACU [KL-SSArg B2] | 453 nM | 207 nM | 381 nM | 390 nM | 342 nM
UGUAUGUGAUUUGAUACCAGACCAGCUGGUGGAAUCUGAGUGAUGUUCAGGUAGGUUUGGGUCCCUUGGCAGCAAAUCGCAUACU [KL-SSTheoB27] | 203 nM | 145 nM | 182 nM | 181 nM | 170 nM
UGUCAUUGGUCGGCCGCCACUAGAAGGUCAAAGACCAUGGAGUGAUGUUCUAAGACGAAAGUCACUAGGACCGGGACCGAUGACU [TrypBS 5 #SwitchBubble #K4Middle] | 1640 nM | 689 nM | 1450 nM | 918 nM | 575 nM
UGUCAUUGGUCGGCCGCCACUCCAUAAAGAGUGAUGUUCUGAAAGACGGAUCGAAAGAUCUGUCGGAGGACCGGGACCGAUGACU [FiskerMod 3 - Jieux - Same State - Tryptophan B] | 1310 nM | 665 nM | 1540 nM | 896 nM | 237 nM
UGUCAUUGGUCUGAUACCAGUUGGGACGAAUACGUCCAACUGGAGUGAUGUUCCUAAAACAACCCUUGGCAGCAGACCGAUGACU [TheoBS 13 #SwitchBubble 13 #StaticStem] | 870 nM | 782 nM | 1040 nM | 638 nM | 750 nM
